According to patent publication US20170306033A1 (Amgen, published 2017):

T1: human PAC1 receptor (human, UniProt P41586 21-468)
T1 sequence: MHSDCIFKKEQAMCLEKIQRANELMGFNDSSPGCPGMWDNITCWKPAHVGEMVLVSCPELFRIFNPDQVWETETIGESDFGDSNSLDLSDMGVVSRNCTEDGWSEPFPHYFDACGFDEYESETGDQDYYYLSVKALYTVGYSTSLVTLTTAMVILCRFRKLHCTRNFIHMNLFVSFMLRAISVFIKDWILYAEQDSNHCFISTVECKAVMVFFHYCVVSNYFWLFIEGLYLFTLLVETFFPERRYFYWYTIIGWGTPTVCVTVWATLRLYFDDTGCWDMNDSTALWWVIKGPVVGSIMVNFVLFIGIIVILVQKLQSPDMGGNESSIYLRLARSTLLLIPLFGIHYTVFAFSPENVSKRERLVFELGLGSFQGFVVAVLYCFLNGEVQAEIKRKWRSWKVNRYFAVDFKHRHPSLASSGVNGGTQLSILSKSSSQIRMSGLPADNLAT


Experiments:
human PAC1 receptor = biological target: T1, human PAC1 receptor; experiment: cell-based or functional assay
human CGRP receptor = human CGRP receptor (human, UniProt Q16602 23-461; O60894 27-148); experiment: cell-based or functional assay
human CGRP receptor, sequence (Q16602 23-461 limits assumed, chain 1 of 2): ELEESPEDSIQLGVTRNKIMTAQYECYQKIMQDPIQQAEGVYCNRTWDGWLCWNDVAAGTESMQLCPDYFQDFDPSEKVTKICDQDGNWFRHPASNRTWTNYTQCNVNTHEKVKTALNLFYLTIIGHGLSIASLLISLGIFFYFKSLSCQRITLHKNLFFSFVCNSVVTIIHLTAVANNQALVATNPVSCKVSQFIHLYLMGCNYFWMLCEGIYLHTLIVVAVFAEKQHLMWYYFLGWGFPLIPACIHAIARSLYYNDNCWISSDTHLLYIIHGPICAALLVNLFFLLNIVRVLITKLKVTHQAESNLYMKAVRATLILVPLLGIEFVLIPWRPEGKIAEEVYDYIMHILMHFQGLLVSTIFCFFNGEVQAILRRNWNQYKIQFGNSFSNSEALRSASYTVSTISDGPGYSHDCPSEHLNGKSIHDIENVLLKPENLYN
human CGRP receptor, sequence (O60894 27-148 limits assumed, chain 2 of 2): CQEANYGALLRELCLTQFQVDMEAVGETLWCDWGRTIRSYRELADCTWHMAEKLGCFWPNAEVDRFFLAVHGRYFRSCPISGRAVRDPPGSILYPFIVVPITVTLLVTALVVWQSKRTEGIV

Binder	% inhibition of human PAC1 (human PAC1 receptor)	% inhibition of human CGRPR (human CGRP receptor)
iPS:326645 (bispecific antibody, human IgG2, kappa, lambda) light 1: not shown heavy 1: QVQLQESGPGLVKPSQTLSLTCTVSGGSISSGGYYWSWIRQHPGKGLEWIGYIYYSGNTYYNPSLKSRVTISGDTSKNQFSLKLRSVTAADTAVYYCTRGGAARGMDVWGQGTTVTVSSASTKGPSVFPLAPCSRSTSESTAALGCLVKDYFPEPVTVSWNSGALTSGVHTFPAVLQSSGLYSLKSVVTVPSSNFGTQTYTCNVDHKPSNTKVDKTVERKCCVECPPCPAPPVAGPSVFLFPPKPKDTLMISRTPEVTCVVVDVSHEDPEVQFNWYVDGVEVHNAKTKPREEQFNSTFRVVSVLTVVHQDWLNGKEYKCKVSNKGLPAPIEKTISKTKGQPREPQVYTLPPSREEMTKNQVSLTCLVDGFYPSDIAVEWESNGQPENNYDTTPPMLDSDGSFFLYSDLTVDKSRWQQGNVFSCSVMHEALHNHYTQKSLSLSPGK light 2: not shown heavy 2: not shown	59%	67%
iPS:327887 (bispecific antibody, human IgG1, kappa, lambda, N297G) light 1: not shown heavy 1: not shown light 2: QSVLTQPPSVSAAPGQKVTISCSGSSSNIGNNYVSWYQQLPGTAPKLLIYDNNKRPSGIPDRFSGSKSGTSATLGITGLQTGDEADYYCGTWDSRLSAVVFGGGTKLTVLGQPKANPTVTLFPPSSEELQANKATLVCLISDFYPGAVTVAWKADGSPVKAGVETTKPSKQSNNKYAAKSYLSLTPEQWKSHRSYSCQVTHEGSTVEKTVAPTECS heavy 2: QVQLVESGGGVVQPGRSLRLSCAASGFTFSSFGMHWVRQAPGKGLEWVAVISFDGSIKYSVDSVKGRFTISRDNSKNTLFLQMNSLRAEDTAVYYCARDRLNYYDSSGYYHYKYYGMAVWGQGTTVTVSSASTKGPSVFPLAPSSKSTSGGTAALGCLVKDYFPEPVTVSWNSGALTSGVHTFPAVLQSSGLYSLESVVTVPSSSLGTQTYICNVNHKPSNTKVDKKVEPKSCDKTHTCPPCPAPELLGGPSVFLFPPKPKDTLMISRTPEVTCVVVDVSHEDPEVKFNWYVDGVEVHNAKTKPCEEQYGSTYRCVSVLTVLHQDWLNGKEYKCKVSNKALPAPIEKTISKAKGQPREPQVYTLPPSRKKMTKNQVSLTCLVKGFYPSDIAVEWESNGQPENNYKTTPPVLKSDGSFFLYSKLTVDKSRWQQGNVFSCSVMHEALHNHYTQKSLSLSPGK	35%	87%
iPS:327886 (bispecific antibody, human IgG1, kappa, lambda, N297G) light 1: DIQMTQSPSSLSASVGDRITITCRASQSISRYLNWYQQKPGKAPKLLIYAASSLQSGIPSRFSGSGSGTDFTLTINSLQPEDFATYFCQQSYSPPFTFGQGTKVDIKRTVAAPSVFIFPPSDEQLKSGTASVVCLLNNFYPREAKVQWKVDNALQSGNSQESVTEQDSKDSTYSLESTLTLSKADYEKHKVYACEVTHQGLSSPVTKSFNRGEC heavy 1: not shown light 2: QSVLTQPPSVSAAPGQKVTISCSGSSSNIGNNYVSWYQQLPGTAPKLLIYDNNKRPSGIPDRFSGSKSGTSATLGITGLQTGDEADYYCGTWDSRLSAVVFGGGTKLTVLGQPKANPTVTLFPPSSEELQANKATLVCLISDFYPGAVTVAWKADGSPVKAGVETTKPSKQSNNKYAAKSYLSLTPEQWKSHRSYSCQVTHEGSTVEKTVAPTECS heavy 2: QVQLVESGGGVVQPGRSLRLSCAASGFTFSSFGMHWVRQAPGKGLEWVAVISFDGSIKYSVDSVKGRFTISRDNSKNTLFLQMNSLRAEDTAVYYCARDRLNYYDSSGYYHYKYYGMAVWGQGTTVTVSSASTKGPSVFPLAPSSKSTSGGTAALGCLVKDYFPEPVTVSWNSGALTSGVHTFPAVLQSSGLYSLESVVTVPSSSLGTQTYICNVNHKPSNTKVDKKVEPKSCDKTHTCPPCPAPELLGGPSVFLFPPKPKDTLMISRTPEVTCVVVDVSHEDPEVKFNWYVDGVEVHNAKTKPCEEQYGSTYRCVSVLTVLHQDWLNGKEYKCKVSNKALPAPIEKTISKAKGQPREPQVYTLPPSRKKMTKNQVSLTCLVKGFYPSDIAVEWESNGQPENNYKTTPPVLKSDGSFFLYSKLTVDKSRWQQGNVFSCSVMHEALHNHYTQKSLSLSPGK	65%	72%

The next lines start with the values.

% inhibition of human PAC1 (human PAC1 receptor)	% inhibition of human CGRPR (human CGRP receptor)	Binder
15%	80%	iPS:327895 (bispecific antibody, human IgG1, kappa, lambda, N297G) light 1: not shown heavy 1: not shown light 2: QSVLTQPPSVSAAPGQKVTISCSGSSSNIGNNYVSWYQQLPGTAPKLLIYDNNKRPSGIPDRFSGSKSGTSATLGITGLQTGDEADYYCGTWDSRLSAVVFGKGTKLTVLGQPKANPTVTLFPPSSEELQANKATLVCLISDFYPGAVTVAWKADGSPVKAGVETTKPSKQSNNKYAAKSYLSLTPEQWKSHRSYSCQVTHEGSTVEKTVAPTECS heavy 2: QVQLVESGGGVVQPGRSLRLSCAASGFTFSSFGMHWVRQAPGKELEWVAVISFDGSIKYSVDSVKGRFTISRDNSKNTLFLQMNSLRAEDTAVYYCARDRLNYYESSGYYHYKYYGMAVWGQGTTVTVSSASTKGPSVFPLAPSSKSTSGGTAALGCLVKDYFPEPVTVSWNSGALTSGVHTFPAVLQSSGLYSLESVVTVPSSSLGTQTYICNVNHKPSNTKVDKKVEPKSCDKTHTCPPCPAPELLGGPSVFLFPPKPKDTLMISRTPEVTCVVVDVSHEDPEVKFNWYVDGVEVHNAKTKPCEEQYGSTYRCVSVLTVLHQDWLNGKEYKCKVSNKALPAPIEKTISKAKGQPREPQVYTLPPSRKEMTKNQVSLTCLVKGFYPSDIAVEWESNGQPENNYKTTPPVLKSDGSFFLYSKLTVDKSRWQQGNVFSCSVMHEALHNHYTQKSLSLSPGK
12%	80%	iPS:327897 (bispecific antibody, human IgG1, kappa, lambda, N297G) light 1: not shown heavy 1: not shown light 2: QSVLTQPPSVSAAPGQKVTISCSGSSSNIGNNYVSWYQQLPGTAPKLLIYDNNKRPSGIPDRFSGSKSGTSATLGITGLQTGDEADYYCGTWDSRLSAVVFGGGTKLTVLGQPKANPTVTLFPPSSEELQANKATLVCLISDFYPGAVTVAWKADGSPVKAGVETTKPSKQSNNKYAAKSYLSLTPEQWKSHRSYSCQVTHEGSTVEKTVAPTECS heavy 2: QVQLVESGGGVVQPGRSLRLSCAASGFTFSSFGMHWVRQAPGKGLEWVAVISFDGSIKYSVDSVKGRFTISRDNSKNTLFLQMNSLRAEDTAVYYCARDRLNYYESSGYYHYKYYGMAVWGQGTTVTVSSASTKGPSVFPLAPSSKSTSGGTAALGCLVKDYFPEPVTVSWNSGALTSGVHTFPAVLQSSGLYSLESVVTVPSSSLGTQTYICNVNHKPSNTKVDKKVEPKSCDKTHTCPPCPAPELLGGPSVFLFPPKPKDTLMISRTPEVTCVVVDVSHEDPEVKFNWYVDGVEVHNAKTKPCEEQYGSTYRCVSVLTVLHQDWLNGKEYKCKVSNKALPAPIEKTISKAKGQPREPQVYTLPPSRKKMTKNQVSLTCLVKGFYPSDIAVEWESNGQPENNYKTTPPVLKSDGSFFLYSKLTVDKSRWQQGNVFSCSVMHEALHNHYTQKSLSLSPGK
56%	83%	iPS:327888 (bispecific antibody, human IgG1, kappa, lambda, N297G) light 1: DIQMTQSPSSLSASVGDRITITCRASQSISRYLNWYQQKPGKAPKLLIYAASSLQSGIPSRFSGSGSGTDFTLTINSLQPEDFATYFCQQSYSPPFTFGQGTKVDIKRTVAAPSVFIFPPSDEQLKSGTASVVCLLNNFYPREAKVQWKVDNALQSGNSQESVTEQDSKDSTYSLESTLTLSKADYEKHKVYACEVTHQGLSSPVTKSFNRGEC heavy 1: not shown light 2: QSVLTQPPSVSAAPGQKVTISCSGSSSNIGNNYVSWYQQLPGTAPKLLIYDNNKRPSGIPDRFSGSKSGTSATLAITGLQTGDEADYYCGTWDSRLSAVVFGGGTKLTVLGQPKANPTVTLFPPSSEELQANKATLVCLISDFYPGAVTVAWKADGSPVKAGVETTKPSKQSNNKYAAKSYLSLTPEQWKSHRSYSCQVTHEGSTVEKTVAPTECS heavy 2: QVQLVESGGGVVQPGRSLRLSCAASGFTFSSFGMHWVRQAPGKGLEWVAVISFDGSIKYSVDSVKGRFTISRDNSKNTLFLQMNSLRAEDTAVYYCARDRLNYYDSSGYYHYKYYGMAVWGQGTTVTVSSASTKGPSVFPLAPSSKSTSGGTAALGCLVKDYFPEPVTVSWNSGALTSGVHTFPAVLQSSGLYSLESVVTVPSSSLGTQTYICNVNHKPSNTKVDKKVEPKSCDKTHTCPPCPAPELLGGPSVFLFPPKPKDTLMISRTPEVTCVVVDVSHEDPEVKFNWYVDGVEVHNAKTKPCEEQYGSTYRCVSVLTVLHQDWLNGKEYKCKVSNKALPAPIEKTISKAKGQPREPQVYTLPPSRKEMTKNQVSLTCLVKGFYPSDIAVEWESNGQPENNYKTTPPVLKSDGSFFLYSKLTVDKSRWQQGNVFSCSVMHEALHNHYTQKSLSLSPGK
28%	87%	iPS:327896 (bispecific antibody, human IgG1, kappa, lambda, N297G) light 1: DIQMTQSPSSLSASVGDRITITCRASQSISRYLNWYQQKPGKAPKLLIYAASSLQSGIPSRFSGSGSGTDFTLTINSLQPEDFATYFCQQSYSPPFTFGQGTKVDIKRTVAAPSVFIFPPSDEQLKSGTASVVCLLNNFYPREAKVQWKVDNALQSGNSQESVTEQDSKDSTYSLESTLTLSKADYEKHKVYACEVTHQGLSSPVTKSFNRGEC heavy 1: not shown light 2: QSVLTQPPSVSAAPGQKVTISCSGSSSNIGNNYVSWYQQLPGTAPKLLIYDNNKRPSGIPDRFSGSKSGTSATLGITGLQTGDEADYYCGTWDSRLSAVVFGGGTKLTVLGQPKANPTVTLFPPSSEELQANKATLVCLISDFYPGAVTVAWKADGSPVKAGVETTKPSKQSNNKYAAKSYLSLTPEQWKSHRSYSCQVTHEGSTVEKTVAPTECS heavy 2: QVQLVESGGGVVQPGRSLRLSCAASGFTFSSFGMHWVRQAPGKGLEWVAVISFDGSIKYSVDSVKGRFTISRDNSKNTLFLQMNSLRAEDTAVYYCARDRLNYYESSGYYHYKYYGMAVWGQGTTVTVSSASTKGPSVFPLAPSSKSTSGGTAALGCLVKDYFPEPVTVSWNSGALTSGVHTFPAVLQSSGLYSLESVVTVPSSSLGTQTYICNVNHKPSNTKVDKKVEPKSCDKTHTCPPCPAPELLGGPSVFLFPPKPKDTLMISRTPEVTCVVVDVSHEDPEVKFNWYVDGVEVHNAKTKPCEEQYGSTYRCVSVLTVLHQDWLNGKEYKCKVSNKALPAPIEKTISKAKGQPREPQVYTLPPSRKKMTKNQVSLTCLVKGFYPSDIAVEWESNGQPENNYKTTPPVLKSDGSFFLYSKLTVDKSRWQQGNVFSCSVMHEALHNHYTQKSLSLSPGK
